Source: PMC13208732 (2026)

What was measured:
[1] = molecular target: T1, recombinant human placental growth factor 2 (PlGF-2) (human, UniProt P49763-3 19-170); assay: ELISA; competition with biotinylated VEGFR1, no heparin
T1 chain: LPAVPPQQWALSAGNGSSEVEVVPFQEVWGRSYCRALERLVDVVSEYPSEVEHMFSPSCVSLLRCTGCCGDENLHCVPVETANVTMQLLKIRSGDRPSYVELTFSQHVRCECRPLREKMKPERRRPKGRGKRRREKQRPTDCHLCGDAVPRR

[2] = molecular target: T1, recombinant human placental growth …; assay: ELISA; competition with biotinylated VEGFR1, 1 ug/mL heparin

IC50 [1]: 142 nM
IC50 [2]: 75.1 nM
B1: VEGFR1 domains 1 to 6 fused to a C-terminal Fc, biotinylated (Fc fusion)
chain: SKLKDPELSLKGTQHIMQAGQTLHLQCRGEAAHKWSLPEMVSKESERLSITKSACGRNGKQFCSTLTLNTAQANHTGFYSCKYLAVPTSKKKETESAIYIFISDTGRPFVEMYSEIPEIIHMTEGRELVIPCRVTSPNITVTLKKFPLDTLIPDGKRIIWDSRKGFIISNATYKEIGLLTCEATVNGHLYKTNYLTHRQTNTIIDVQISTPRPVKLLRGHTLVLNCTATTPLNTRVQMTWSYPDEKNKRASVRRRIDQSNSHANIFYSVLTIDKMQNKDKGLYTCRVRSGPSFKSVNTSVHIYDKAFITVKHRKQQVLETVAGKRSYRLSMKVKAFPSPEVVWLKDGLPATEKSARYLTRGYSLIIKDVTEEDAGNYTILLSIKQSNVFKNLTATLIVNVKPQIYEKAVSSFPDPALYPLGSRQILTCTAYGIPQPTIKWFWHPCNHNHSEARCDFCSNNEESFILDADSNMGNRIESITQRMAIIEGKNKMASTLVVADSRISGIYICIASNKVGTVGRNISFYITDVPNGFHVNLEKMPTEGEDLKLSCTVNKFLYRDVTWILLRTVNNRTMHYSISKQKMAITKEHSITLNLTIMNVSLQDSGTYACRARNVYTGEEILQKKEIT
modifications: biotin (EZ-Link Sulfo-NHS-Biotinylation Kit)
